Patent publication US20120270234A1, “DDR2 PROTEIN WITH ACTIVATED KINASE ACTIVITY AND PREPARATION METHOD THEREOF” (KOREA INSTITUTE OF SCIENCE AND TECHNOLOGY, priority 2003, published 2012)

Experiments:
c-Src tyrosine kinase = molecular target: T1, c-Src tyrosine kinase (Mus musculus, UniProt P05480, P80A); experiment: tyrosine phosphorylation on co-expression with c-Src in insect cells, western blotting with phosphorylated tyrosine specific antibody; format: cell-based, Spodoptera frugiperda; settings: glutathione bead purified, FIG. 2, FIG. 4
T1 construct: Full length human c-Src gene was per amplified from the vector of pUSE human O-Src wild (Upstate Biotechnology); host or cells: sf9 insect cells co-infected with two recombinant baculoviruses
Description: The results shown in FIG. 4 were obtained by co-expressing a fused protein GST-DDR2 CKD, a fused protein (GST-DDR1b CKD) of the GST and the human DDR1b cytosolic tyrosine kinase domain, a fused protein (GST-Akt1) of the GST and the full-length mouse Akt1 kinase and a fused protein (GST-CDK4) of the GST and the full-length human CDK4 kinase with the c-Src protein without GST tagging in insect cells, respectively; purifying the respective expressed product using glutathione beads; performing SDS-PAGE; and performing the western blotting test using a phosphorylated tyrosine specific antibody and coomassie staining.
The results shown in FIG. 4 have been obtained by co-expressing the full-length c-Src protein together with the fused proteins, GST-DDR2 CKD, GST-DDR1b CKD, GST-Akt1 and GST-CDK4, respectively; in sf9 cells, then performing a western blotting test on each purified GST tagged protein using a phosphorylated tyrosine specific antibody. The presence of a similar amount of each purified GST tagged protein was shown by CBB staining.
GST tagged kinase defective DDR2 cytosolic domain (GST-kd-DDR2-CKD) with intact three tyrosines in the activation loop or with various phenylalanine mutations described in the text were co-expressed with Src in sf9 cells. GST tagged proteins were purified and the same amount of proteins estimated by CBB staining was used for western blotting using P-tyro antibody.
Phospho-tyrosine specific antibody was purchased from Cell Signaling Inc, USA. Specific antibodies to human c-Src, human c-Fyn, and she were obtained from SantaCruz, USA. Samples were boiled for 2 min in 1× lameli sample buffer, and loaded in 10% SDS-PAGE. Proteins were transferred to Immobilon-P membrane (Millipore) and blacked by 10% skim milk in TBS for an hour. The membrane was immunoblotted with antibodies for 2 hours and subsequently washed with 1×TBS five times. Then it was incubated with HRP conjugated secondary antibodies for an hour and protein bands were detected using chemiluminescence kit (Amersham).

sf9 cells = experiment: tyrosine phosphorylation by H2O2 processing of expressing insect cells, western blotting with phosphorylated tyrosine specific antibody; format: cell-based, Spodoptera frugoperda; settings: 200 μM H2O2 for half of an hour; FIG. 2, FIG. 5
Description: The results shown in FIG. 5 were obtained by solely expressing the fused proteins, GST-DDR2 CKD, the GST-DDR1b CKD, the GST-CDK4 and the GST-CDK1, respectively, in insect cells; processing with 200 μM of H2O2 for half of an hour; purifying the respective expressed product using glutathione beads; performing the SDS-PAGE; and performing the western blotting test using an phosphorylated tyrosine specific antibody and coomassie staining.
The results shown in FIG. 5 have been obtained by solely expressing GST-DDR2 CKD, GST-DDR1b CKD, GST-CDK4 and GST-CDK1, respectively in sf9 cells; processing each expressed cells with H2O2 of 200 uM for half of an hour or not; and then purifying the GST tagged protein followed by a western blotting using a phosphorylated tyrosine specific antibody. The presence of a similar amount of each purified GST tagged protein was shown by CBB staining.
The recombinant baculoviruses having the GST-DDR2 CKD coding gene were transfected into sf9 insect cells, by setting MOU to 10 and the cells were cultured for 24 to 72 hours, to express the protein. […], at the concentration of 200 μM was added to the cultured cells. The cells were left for half of an hour, and collected. The collected cells were lysed and the GST-DDR2 CKD was purified from the expressed products, using the glutathione agarose bead column chromatography. The purified protein was subjected to an electrophoresis in 10% polyacrylamaid gel.
After completing the electrophoresis, the protein developed in the gel was transferred to nitrocellulose, and then subjected to a western blotting using a phosphorylated tyrosine specific antibody (Cell signaling Inc, USA), to measure the chemiluminescence signal using x-ray film. For the control, the chemical luminescence of the case without H2O2 processing was measured by the method as mentioned above.

tyrosine phosphorylation induced by co-expression with c-Src (c-Src tyrosine kinase) | Molecule | tyrosine phosphorylation induced by H2O2 processing (sf9 cells)
poorly induced or never induced | GST-Akt1: fused protein of the GST and the full-length mouse Akt1 kinase, control (protein, left off: a dimerising Fc or GST, fused protein of the GST and the full-length mouse Akt1 kinase, control) MNDVAIVKEGWLHKRGEYIKTWRPRYFLLKNDGTFIGYKERPQDVDQRESPLNNFSVAQCQLMKTERPRPNTFIIRCLQWTTVIERTFHVETPEEREEWATAIQTVADGLKRQEEETMDFRSGSPSDNSGAEEMEVSLAKPKHRVTMNEFEYLKLLGKGTFGKVILVKEKATGRYYAMKILKKEVIVAKDEVAHTLTENRVLQNSRHPFLTALKYSFQTHDRLCFVMEYANGGELFFHLSRERVFSEDRARFYGAEIVSALDYLHSEKNVVYRDLKLENLMLDKDGHIKITDFGLCKEGIKDGATMKTFCGTPEYLAPEVLEDNDYGRAVDWWGLGVVMYEMMCGRLPFYNQDHEKLFELILMEEIRFPRTLGPEAKSLLSGLLKKDPTQRLGGGSEDAKEIMQHRFFANIVWQDVYEKKLSPPFKPQVTSETDTRYFDEEFTAQMITITPPDQDDSMECVDSERRPHFPQFSYSASGTA | –
poorly induced or never induced | GST-CDK4: fused protein of the GST and the full-length human CDK4 kinase, control (protein, left off: a dimerising Fc or GST, fused protein of the GST and the full-length human CDK4 kinase, control) MATSRYEPVAEIGVGAYGTVYKARDPHSGHFVALKSVRVPNGGGGGGGLPISTVREVALLRRLEAFEHPNVVRLMDVCATSRTDREIKVTLVFEHVDQDLRTYLDKAPPPGLPAETIKDLMRQFLRGLDFLHANCIVHRDLKPENILVTSGGTVKLADFGLARIYSYQMALTPVVVTLWYRAPEVLLQSTYATPVDMWSVGCIFAEMFRRKPLFCGNSEADQLGKIFDLIGLPPEDDWPRDVSLPRGAFPPRGPRPVQSVVPEMEESGAQLLLEMLTFNPHKRISAFRALQHSYLHKDEGNPE | poorly induced or never induced
poorly induced or never induced | GST-DDR1b CKD: fused protein of the GST and the human DDR1b cytosolic tyrosine kinase domain, control (protein, left off: a dimerising Fc or GST, fused protein of the GST and the human DDR1b cytosolic tyrosine kinase domain, control) VLEEELTVHLSVPGDTILINNRPGPREPPPYQEPRPRGNPPHSAPCVPNGSALLLSNPAYRLLLATYARPPRGPGPPTPAWAKPTNTQAYSGDYMEPEKPGAPLLPPPPQNSVPHYAEADIVTLQGVTGGNTYAVPALPPGAVGDGPPRVDFPRSRLRFKEKLGEGQFGEVHLCEVDSPQDLVSLDFPLNVRKGHPLLVAVKILRPDATKNARNDFLKEVKIMSRLKDPNIIRLLGVCVQDDPLCMITDYMENGDLNQFLSAHQLEDKAAEGAPGDGQAAQGPTISYPMLLHVAAQIASGMRYLATLNFVHRDLATRNCLVGENFTIKIADFGMSRNLYAGDYYRVQGRAVLPIRWMAWECILMGKFTTASDVWAFGVTLWEVLMLCRAQPFGQLTDEQVIENAGEFFRDQGRQVYLSRPPACPQGLYELMLRCWSRESEQRPPFSQLHRFLAEDALNTV | poorly induced or never induced
